Measured values from patent US7387779B2, “Anti-angiogenic proteins and fragments and methods of use thereof” (Beth Israel Deaconess Medical Center, priority 1998, dated 2008).

What was measured:
C-PAE cells [1] = test: Total protein synthesis, 35S-methionine incorporation; type: cell-based, bovine
Experimental: Primary human renal epithelial cells (HRE) were purchased from Clonetics (San Diego, Calif., USA) and were maintained in REGM (Clonetics Corp.). Other cell lines were obtained and maintained as described above. Cells were serum-starved for 24 hrs (0.5% FCS), stimulated with 10% FCS in the presence of T3 peptide, Tumstatin-44-131, endostatin or rapamycin for 12-24 hours. After pre-incubation of cells in methionine-free media for 1 hour, cells were labeled with ^35S-methionine for 1 hour and incorporation of radioactivity into trichloracetic acid precipitates was analyzed (Sudhakar, A. et al., 2000, Biochem. 39:12929-38; Maeshima, Y. et al., 1996, J. Amer. Soc. Nephrol. 7:2219-29). ANOVA with a one-tailed Student's t test was used to identify significant differences in multiple comparisons in the present study. A level of P<0.05 was considered statistically significant.

[2] = test system: mouse aortic endothelial cells (MAE); test: Endothelial tube formation on Matrigel; type: cell-based; conditions: for ED50: endothelial tube assay (FIGS. 30 and 31)
Experimental: To measure inhibition of endothelial tube formation, 320 μl of Matrigel (Collaborative Biomedical Products, Bedford, Mass., USA) was added to each well of a 24-well plate and allowed to polymerize (Grant, D. S. et al., 1994, Pathol. Res. Pract. 190:854-63). A suspension of 25,000 mouse aortic endothelial cells (MAE) in EGM-2 medium (Clonetics Corp., San Diego, Calif., USA) without antibiotic was passed into each well coated with Matrigel. The cells were treated with increasing concentrations of either Arresten, BSA, sterile PBS or the 7S domain. All assays were performed in triplicate. Cells were incubated for 24-48 hours at 37° C. and viewed using a CK2 Olympus microscope (3.3 ocular, 10× objective). The cells were then photographed using 400 DK coated TMAX film (Kodak). Cells were stained with diff-quik fixative (Sigma Chemical Company, St. Louis, Mo., USA) and photographed again. Ten fields were viewed, and the tubes counted and averaged.
Matrigel (Collaborative Biomedical Products, Bedford, Mass., USA) was added ([…]) to each well of a 24 well plate and allowed to polymerize (Grant, D. S. et al., supra). A suspension of 25,000 mouse aortic endothelial cells (MAE) in EGM-2 (Clonetics Corporation, San Diego, Calif., USA) medium without antibiotic was passed into each well coated with Matrigel. The cells were treated with either Canstatin, BSA, sterile PBS or α5-NC1 domain in increasing concentrations. All assays were performed in triplicate. Cells were incubated for 24-48 hours at 37° C. and viewed using a CK2 Olympus microscope (3.3 ocular, 10× objective). The cells were then photographed using 400 DK coated TMAX film (Kodak). Cells were stained with diff-quik fixative (Sigma Chemical Co., St. Louis, Mo., USA) and photographed again (Grant, D. S. et al., 1994, Pathol. Res. Pract. 190:854-63). Ten fields were viewed, tubes counted and averaged.
Matrigel (Collaborative Biomedical Prods., Bedford, Mass., USA) was added ([…]) to each well of a 24-well plate and allowed to polymerize (Grant, D. S. et al., 1994, Pathol. Res. Pract. 190:854-63). A suspension of 25,000 MAE cells in EGM-2 medium (Clonetics Corporation, San Diego, Calif., USA) without antibiotic was passed into each well coated with Matrigel (Grant, D. S. et al., 1994, Pathol. Res. Pract. 190:854-63). The cells were treated with either Tumstatin, BSA or 7S domain in increasing concentrations. Control cells were incubated with sterile PBS. All assays were performed in triplicate. Cells were incubated for 24-48 hours at 37° C. and viewed using a CK2 Olympus microscope (magnification of 3.3× ocular, 10× objective). The cells were then photographed using 400 DK coated TMAX film (Kodak). Cells were stained with diff-quik fixative (Sigma Chemical Co.) and photographed again (Grant, D. S. et al., 1994, Pathol. Res. Pract. 190:854-63). Ten fields were viewed, and the number of tubes were counted by two investigators unaware of the experimental protocols, and averaged.
Fragments and mutants of Arresten and Canstatin were also made according to the Pseudomonas elastase digestions of Mariyama et al. (1992, J. Biol. Chem. 267:1253-58). The digest was resolved by gel filtration HPLC and the resultant fragments were analyzed by SDS-PAGE and evaluated in the endothelial tube assay described above. These fragments included a 12 kDa fragment of Arresten, an 8 kDa fragment of Arresten, and a 10 kDa fragment of Canstatin. In addition, two fragments of Tumstatin (‘333’ and ‘334’) were generated by PCR cloning.

MLEC β3−/− = test: Protein synthesis and cap-dependent translation in β3-integrin deficient endothelial cells; type: cell-based, mouse; conditions: 4.5 μM; rapamycin 100 ng/ml
Description: Therefore, to evaluate the effect of tumstatin peptides on cap-dependent and independent translation, endothelial cells were isolated from lungs of 12-week-old mice that were deficient in the expression of αvβ3 integrin (i.e., 3 integrin-deficient mice), and also their wild-type counterparts (Hodivala-Dilke, K. M. et al., 1999, J. Clin. Invest. 103:229-38). Briefly, ICAM-2 expressing MLEC were enriched using rat anti-mouse ICAM-2 (# 01800D, PharMingen, San Diego, Calif., USA) conjugated to magnetic beads (Dynabeads M-450, Dynal, Oslo, Norway). MLEC were maintained in 40% Ham's F-12,40% DME-Low Glucose, 20% FBS supplemented with heparin, endothelial mitogen (Biomedical Technologies, Inc., Cambridge, Mass., USA), glutamine and penicillin/streptomycin. Wild-type and β3-integrin-deficient mouse embryonic fibroblasts were prepared (Hodivala-Dilke, K. M. et al., 1999, J. Clin. Invest. 103:229-38). MEFs were maintained in DMEM containing 10% FBS. MLEC were characterized for homogeneity by morphological observations and by immunofluorescence staining for endothelial-specific markers. Cells between passage 3 and 6 were used for the experiments.

C-PAE cells [3] = test: Cell cycle analysis (propidium iodide, flow cytometry); type: cell-based, bovine; conditions: 10% FBS

## LQRFTTMPFLFCNVNDVCNF [T3]
C-PAE cells [1]; 22.7 μM
  maximal inhibition of protein synthesis: about 45%

B1: Tumstatin: NC1 domain of the α3 chain of type IV collagen, residues 1-244 (SEQ ID NO:10) (protein, listed as Homo sapiens)
chain: GLKGKRGDSGSPATWTTRGFVFTRHSQTTAIPSCPEGTVPLYSGFSFLFVQGNQRAHGQDLGTLGSCLQRFTTMPFLFCNVNDVCNFASRNDYSYWLSTPALMPMNMAPITGRALEPYISRCTVCEGPAIAIAVHSQTTDIPPCPHGWISLWKGFSFIMFTSAGSEGTGQALASPGSCLEEFRASPFLECHGRGTCNYYSNSYSFWLASLNPERMFRKPIPSTVKAGELEKIISRCQVCMKKRH
[2]
  concentration of maximum inhibition: 800 to 1000 ng/mL
  ED50: 0.55 µg/mL
[2]; 1 mg/ml of protein, produced in 293 cells
  Percentage of tube formation after treatment: 14.0±4.0
MLEC β3−/−
  cap-dependent protein synthesis in αvβ3 integrin deficient (β3−/−) endothelial cells: did not have any effect

B2: endostatin: tumor associated angiogenesis inhibitor used as comparator (protein, UniProt P39060 1572-1754, looked up)
Endostatin: HSHRDFQPVLHLVALNSPLSGGMRGIRGADFQCFQQARAVGLAGTFRAFLSSRLQDLYSIVRRADRAAVPIVNLKDELLFPSWEALFSGSEGPLKPGARIFSFDGKDVLRHPTWPQKSVWHGSDPNGRRLTESYCETWRTEAPSATGQASSLLGGRLLGQSAASCHHAYIVLCIENSFMTASK
modifications: Endostatin
C-PAE cells [1]; 4.5 μM, 24 hours of serum stimulation, rapamycin 100 ng/ml
  inhibition of protein synthesis: did not inhibit protein synthesis
C-PAE cells [3]
  IC50, inhibition of cell cycle progression: no activity
MLEC β3−/−
  cap-dependent protein synthesis in αvβ3 integrin deficient (β3−/−) endothelial cells: did not exhibit this property

B3: Canstatin: NC1 domain of the α2 chain of Type IV collagen (SEQ ID NO:6) (protein, listed as Homo sapiens)
chain: VSIGYLLVKHSQTDQEPMCPVGMNKLWSGYSLLYFEGQEKAHNQDLGLAGSCLARFSTMPFLYCNPGDVCYYASRNDKSYWLSTTAPLPMMPVAEDEIKPYISRCSVCEAPAIAIAVHSQDVSIPHCPAGWRSLWIGYSFLMHTAAGDEGGGQSLVSPGSCLEDFRATPFIECNGGRGTCHYYANKYSFWLTTIPEQSFQGSPSADTLKAGLIRTHISRCQVCMKNL
[2]; 1 mg of Canstatin protein produced in 293 cells
  inhibition of tube formation: near complete inhibition
[2]
  ED50: 0.4 µg/mL

B4: Tum-1: residues 54 to 244 of Tumstatin, lacking the N-terminal 53 amino acids (SEQ ID NO:22) (protein)
chain: QRAHGQDLGTLGSCLQRFTTMPFLFCNVNDVCNFASRNDYSYWLSTPALMPMNMAPITGRALEPYISRCTVCEGPAIAIAVHSQTTDIPPCPHGWISLWKGFSFIMFTSAGSEGTGQALASPGSCLEEFRASPFLECHGRGTCNYYSNSYSFWLASLNPERMFRKPIPSTVKAGELEKIISRCQVCMKKRH
modifications: Tum-1 (Tumstatin N-53) (amino acids 54-244 of SEQ ID NO10)
C-PAE cells [3]
  IC50, inhibition of cell cycle progression: about 5 μg/ml
